A protein production outcome set (Wang et al. 2014)

Test: label from the status in PepcDB records

MSNKIITLEINLEPSDNHRLASLCGPFDDNIKHLERRLGVEINYRGNFFTIVGQPHTAAAALDIIKTLYVETAPVRGQITDIEPEQIHLAIKESGVLEQHSESSIAHGKEVFVKTKKGVIKPRTPNQAQYLMNMVTHDITFGVGPAGTGKTYLAVAAAVDALERQEIRRILLTRPAVEAGEKLGFLPGDLSQKVDPYLRPLYDALFEMLGFERVEKLIERNVIEVAPLAYMRGRTLNDAFIILDESQNTTVEQMKMFLTRIGFNSRAVITGDVTQIDLPRGAKSGLRHAIEVLNEVDEISFNFFQADDVVRHPVVARIVNAYEKWEAQDQKERKEYEQRRREERENKLLEMQRAEMTLSHNNESNPS
protein production: failed

MTDEIISYQKAKLAKNLAISTASKWLFVHSSTGGSATNLSIAQYATLINGIQSAIKCQVILTAGKGERERAVELAEKLTDQNVVIYDKNDGLADFTRSLACADLFIAGSTGPLHIAGGLNIPTVGFYPSRLSATPRRWRPINQVDKHLAFCPPSGKQCEMDLTLISIEQALTSVIPFIKKMWQLSLEHHHHHH
protein production: not failed

MNISEINGFEVTGFVVRTTNADEMNPMTAKIGNLWEKFYLNAAPKLTDKSKVYGLYTNYESDFTGAFDVIACSDTLSPQLLSESVKTKVSSGKYVTFSATGEMPQVVIDLWNEVWNYFASEHCPHKRAYTTDFEYYKSANTVEISIAVR
protein production: not failed

MNTLEIAKEVFEKEAQAILDLATNLDENFNQAVNLMLNTKGRCIVSGMGKSGHIGAKIAATLASTGTPSFFIHPGEALHGDLGMLTSEDVLIAISNSGETEEILKIIPAIKKREIPLIVMCGKKNSTLVKQGDIFLNIAVEKEACPLQLAPMSSTTATLVMGDALAAALMKVRNFKPDDFALFHPGGSLGRKLLTKVKDLMVSSNLPIVHPDTEFNDLVDVMTSGKLGLCVVLENEKLVGIITDGDLRRALKASDKPRFDFKAKEIMSINPKVVDADAMASEAEGIMLKHKIKEIIVGKEEKVVGIIQLYAIGNV
protein production: not failed

MGPSILKMLTHAKSHKEALMAFSRREFLKSAAAASAASAVGMSVPSQLLAQAQEGEKGWRWDKSVCRFCGTGCGIMVATKNDQIVAVKGDPAAPVNRGLNCIKGYFNAKIMYGADRLTDPLLRVNEKGEFDKQGKFKPVSWKKAFDVMEAQFKRAYNELGPTGIGVFGSGQYTIQEGYMAAKLIKGGFRSNNLDPNARHCMASAVAAFMETFGIDEPAGCYDDIELTDTIITWGANMAEMHPILWARVTDKKLSNPDKVKVINLSTYTNRTSDLADIEIIFTPQTDLAIWNYIAREIVYNHPESIDMEFVKNHCIFTTGFTDIGYGMRTDIKHAKYDPKELDIAAKERSKVLSEAEGVTLRYLGMKAGDVMEMKHNATAGNHWEITFEDFKKALEPYTLDFVAKLAKGNSEESLESFKEKLQKLANLYIEKERKVVSFWTMGMNQHTRGTWVNEQSYMVHFLLGKQAKPGSGAFSLTGQPSACGTAREVGTFSHRLPADMVVANPKHRAVSEKIWKLPEGTLNPKMGAHYMNIMRDLEDGKIKFAWIQVNNPWQNTANANHWIKAAREMDNFIVCSDAYPGISAKVADLILPTAMIYEKWGAYGNAERRTQHWRQQVVPVGNAMPDVWQMAEFSKRFKLKEVWGAKKIDDKLTLPDVLEKAKAMGYSPEDTLFEVLFANSEAKSFKAKDPIGEGFENTEVFGDRRNVAGSDGEVFKGYGFFIHKYLWEEYRRFGNGHGHDLADFDTYHKVRGLKWPVVDGKETQWRFNAKYDPYARKAGSGEFAFYGDAMKELPRGDLLSPKTEEKFKLTNKAKIFFRPYMDPPEMPSSEYPLWLCTGRVLEHWHSGTMTMRVPELYRAVPEALCYMHPEDAKKLGVKQNEAVWVESRRGKVKARVDTRGRNRTPLGLVYVPWFDEKVYINKVCLDATCPISKQTDFKKCAVKVYKA
protein production: failed

MHRHVVTKVLPYTPDQLFELVGDVDAYPKFVPWITGMRTWNGRVDGAVSTVDAEAQVGFSFLREKFATRVRRDKDARSIDVSLLYGPFKRLNNGWRFMPEGDATRVEFVIEFAFKSALLDAMLAANVDRAAGKLIACFEARAQQLHGALEHHHHHH
protein production: not failed

MAPTLAGPNVAGDCFPGASGCIVLPMSGSLSLHIAAFLALLPAAFTPLRQTPGRDGLFWGTLGVAIIGALVVSIVPSLRQGMWSTSFSSALWVSIAATLLLFSELCFRHQAAWRLTPVLMPYLIALGAMATIWEGAEGAPLADHAPAFWTVLHIVIAVLTYGMLTLGAVAALAGFLQERALKARRPTSLTRRLPAAAEADRLSWILLYTSEWVLGAGLLTGMAVEYLETGAILQPDHKSMLSSLAFLVIGGLILARSRWGVRGRVGARVVLLAYLLLTLAFPGVKFVSDVLL
protein production: failed

MLLAVEGGGLFSASASGYSKGLTLLFSGDKDVDRPMRVVPWNHYQVVDQEPEADPVLQLDSIKNRVSRGCAASFSCFGGASAGLETPSPLKVEPVQQQHREISSPESVVVVSEKGKDQISEADNGSSKEAFKLSLRSSLKRPSVAESRSLEDIKEYETLSVDGSDLTGDMARRKVQWPDACGSELTQVREFEPRYV
protein production: failed

MGSSHHHHHHSSGLVPRGSHMLEGIIEEKALFVTCGATVPFPKLVSCVLSDEFCQELIQYGFVRLIIQFGRNYSSEFEHLVQERGGQRESQKIPIDQFGCGDTARQYVLMNGKLKVIGFDFSTKMQSIIRDYSDLVISHAGTGSILDSLRLNKPLIVCVNDSLMDNHQQQIADKFVELGYVWSCAPTETGLIAGLRASQTEKLKPFPVSHNPSFERLLVETIYS
protein production: not failed

MKPLKEYLLIPTQMRVFETQTQAIETSLSVNAQTSESSEAFTVKKDPHEIKVTGKKSGESELVYDLAGFPIKKTKVHVLPDLKVIPGGQSIGVKLHSVGVLVGFHQINTSEGKKSPGETAGIEAGDIIIEMNGQKIEKMNDVAPFIQKAGKTGESLDLLIKRDKQKIKTKLIPEKDEGEGKYRIGLYIRDSAAGIGTMTFYEPKTKKYGALGHVISDMDTKKPIVVENGEIVKSTVTSIEKGTGGNPGEKLARFSSERKTIGDINRNSPFGIFGTLHQPIQNNISDQALPVAFSTEVKKGPAEILTVIDDDKVEKFDIEIVSTTPQKFPATKGMVLKITDPRLLKETGGIVQGMSGSPIIQNGKVIGAVTHVFVNDPTSGYGVHIEWMLSEAGIDIYGKEKASLEHHHHHH
protein production: not failed

MVMMEQCAWPYIRSVRVRVGERTRAGGEFDLMGTTTRRNASAMKMVGALLALYRQAAGHTQRSLGERFVIGEQQIASIEQGRRPLKPDLAEQLDELLGTKGALSTALSKMPEVDLVPLWAEEFLDREREAIAISSYENQVLPGLLQTEAYAWAVFRSRVPFYDEDTIARLAAARIERQGILQGKEPPITCFVVWEPVVRAPIGGRTVWREQLQRLRACSELPGLMLQVLPQDRTSHAGLNGPFVLLETPEHQRLAYTENQRGSQLIADADEVAILTQKCAMLRSQALTPEDTRDLLDRLLGEQ
protein production: failed

MKEIVERVKTKTKIPVYERSVENVLSAVLASDDIWRIVDLSEEPLPLVVAILESLNELGYVTFEDGVKLTEKGEELVAEYGIGKRYDFTCPHCQGKTVDLQAFADLLEQFREIVKDRPEPLHEFDQAYVTPETTVARVILMHTRGDLENKDIFVLGDDDLTSIALMLSGLPKRIAVLDIDERLTKFIEKAANEIGYEDIEIFTFDLRKPLPDYALHKFDTFITDPPETLEAIRAFVGRGIATLKGPRCAGYFGITRRESSLDKWREIQKLLLNEFNVVITDIIRNFNEYVNWGYAEETRAWKLIPIKKLPEYNWYKSYMFRIETLEGSRGYEDEIPEEDIYNDEESST
protein production: not failed

MKTTIAAALQQYFLNDNTACYVLTGDNYPHRIPMRNDEERLNVYNESGEDGLRGYLGTPKEIDFDRINKELSEFKAGKDIIEIKHMGREDGDISYDETDFTGIKVLILEWTHGGSEYLKGVDIPVFLESSPEETKARRIKRGRDENAASPFICRVVELEQEKLDLQGKNARIVVGKDGKVYEQLEHHHHHH
protein production: failed

MKLELGNIFIKNVEFGEKTEVKDGVLYISSEEIEKIVLEDERIVSVNVELARPGESIRIAPVKDVIEPRVKIGDESKIFPGIINKVKTVGSGRTHVLLGACVVTCGNIVGFQEGVIDMSGPTAKYTPFSKTNNICIVIKAKDGIDTHDYEEAARIAGLKIGAYVGEAGREVEPDEVIVYETKPLLKQVKEYPDLPTVAYVHMLQSQGLLHDTYYYGVDAKQIVPTFMYPTEIMDGAIISGNCVAPCDKVTTFHHLNNPVIHDLYKRHGKDLNFIGVILTNENVFLVDKERSSDMVAKLIEFLGVDGVLVTEEGYGNPDTDLMMNCRKCSEVGANVVLITDEFPGKDGKSQSIADATKEADAVVSCGQGNLVVHFPAMEKIIGTLDYVEMMIGGYKGCLNEDGSMDAELQIIIASTIANGYNHLTARYY
protein production: failed

MKKIYIILLILFVILISLIGASILLVMSLSGENVDLFGGEKIAKVYLCNEIYFDYNQGDGIFPQQKKDARYYINLLDDLEKDDSVKGVLLVVNSPGGEVIASEKLARKVEELAKKKPVVVYVEGLDASGAYMVSAPADYIVAEKHSIVGSIGVRMDLMHYYGLMKKLGINVTTIKAGKYKDIGSPFRPMTKEEKEYLQKMINETYMDFVKWVAEHRHLSINYTLKIADGKIYSGEDAKKVGLVDEVGTEEDALKKLEQLANVSNPEIVEYGLEENKGLFGLTYYLGYGIGKGIGEVLYGMEKINGRVELLSLEHHHHHH
protein production: failed

MKNPIIDNIPCVLLAGGKSSRFITNNIQTNKALMPLKSYSSLLEYQYTRLLKLFKKVIISTKKSYELNAPYLLEKESDLFSPLFGIHNAFLTLQTPYIFFIPIDTPLVSFESIKALCGIKNFSVTYAKSPTKEHYLISLWHQNTLNALIYALKTQNYRLSDLVKNTSSVAINFDKEEEFLNLNTLKDYELAVQILKKRANG
protein production: failed

MDNWQDITDDRLVRPIHPGEVIADILDDLDINTANFAEILGVSNQTIQEVINGQRSITVDIAIRLGKALGNGPRLWLNLQQKVDLWYALQSHKEEYEQVMTLV
protein production: not failed

MINLWKNGYDMVYGIRNRTTESWLKRVLTQAYYRILNLSSPIDIPESAGDFRLLDAKVVEAIKQLPEKNRYMKGLYAWVGFKSIGINFSEQERQHGHSSFNLKSLFNLAMSGLTGFSDLPLRVCIYLGAILALGAMSYGVWIIIKTLIEGISIPGWATLAAGMTLLGGIQLLFIGILGEYIGRIYAEVKNRPKYIISTEHSRTKQEHSIAHQENTFSSF
protein production: failed

MNIAEQMKDVLKEEIKAAVLKAGLAEESQIPNVVLETPKDKTHGDYSTNMAMQLARVAKKAPRQIAEEIVAHFDKGKASIEKLDIAGPGFINFYMNNQYLTKLIPSVLEAGEAYG
protein production: failed

MTLKTFFNFTRIQTLPAALLSPIAGCLFAFWYFGSFHFWPTLLFFIGLASINLFVSAWNNLMDYQKALDPEYKKWNIIVAKSINPKLALNICLALLAIDVVVGLIVLFLTNLAILPIGGLCFLIAIFYTYGPFAFSRFPLGEILAGLCEGFFGFFLAVYINSYDKGYFFINFDRNWFMTWTWDFKILLPILLVGLMCFVQNFNIMFSDNICDLEQDIRNERYTLPYYLKIPLSLKVFTGLYLFAGLCILIAIALGILPIWSLLMSIIALKVIPNIKKFRAKQSKSETFHLQIDNLMLFNASLALTLLLGIIFK
protein production: failed
